In patent US20240287172A1 (SCIRHOM, published 2024):
Substitutions are numbered along the chain they refer to.

T1: hiR2-FL-I477M-T7 (human, UniProt Q6PJF5 1-856)
T1 sequence: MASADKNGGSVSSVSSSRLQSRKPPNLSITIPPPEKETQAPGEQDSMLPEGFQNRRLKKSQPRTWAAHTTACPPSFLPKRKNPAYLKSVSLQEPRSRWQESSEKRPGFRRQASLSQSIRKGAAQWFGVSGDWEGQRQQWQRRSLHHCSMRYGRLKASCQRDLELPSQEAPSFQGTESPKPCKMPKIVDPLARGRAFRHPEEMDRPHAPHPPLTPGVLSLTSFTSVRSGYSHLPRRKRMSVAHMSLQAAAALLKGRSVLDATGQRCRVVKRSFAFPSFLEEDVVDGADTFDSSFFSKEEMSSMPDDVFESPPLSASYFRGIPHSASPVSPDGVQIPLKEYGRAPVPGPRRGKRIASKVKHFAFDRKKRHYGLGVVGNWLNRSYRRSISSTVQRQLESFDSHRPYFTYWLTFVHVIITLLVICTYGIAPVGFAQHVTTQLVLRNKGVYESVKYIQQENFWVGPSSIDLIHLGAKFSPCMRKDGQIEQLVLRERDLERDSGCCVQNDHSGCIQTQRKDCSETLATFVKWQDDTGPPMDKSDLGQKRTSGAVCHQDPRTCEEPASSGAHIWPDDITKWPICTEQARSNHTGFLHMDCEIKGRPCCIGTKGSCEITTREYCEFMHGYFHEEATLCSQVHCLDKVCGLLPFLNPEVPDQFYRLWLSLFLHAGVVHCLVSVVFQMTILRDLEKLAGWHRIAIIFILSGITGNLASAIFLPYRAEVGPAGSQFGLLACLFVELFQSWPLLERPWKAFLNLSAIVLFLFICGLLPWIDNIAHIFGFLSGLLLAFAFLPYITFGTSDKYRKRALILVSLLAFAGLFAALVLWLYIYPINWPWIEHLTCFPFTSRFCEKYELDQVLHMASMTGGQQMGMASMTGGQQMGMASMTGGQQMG

T2: hiR2-FL-Q437D-T7 (human, UniProt Q6PJF5 1-856)
T2 sequence: T1 sequence with Q437D, M477I

B1: antibody 48 (antibody, V domains shown)
VH: QVQLQQSGTELVRPGTSVKVSCKASGYAFTNYLIEWVKQRPGQGLEWIGVINPGSGFTKYNEKFKGKATLTADKSSSTVYMHLSSLTSEDSAVYFCARGLYRAMDYWGQGTSVTVSS
VL: DIQMTQSPASQSASLGESVTITCLASQTIATWLAWYQQKPGKSPQLLIYGATTLADGVPSRFSGGGSGTKFSFKISSLQAEDFVSYYCQQLYSTPYTFGGGTKLEIK
notes: mouse IgG, kappa light chain; also called clone #48; purified antibody 48
B2: antibody 50 (antibody, V domains shown)
VH: B1 VH with T9A, T16A, T30S, V79A, H82Q
VL: B1 VL with A30G, G50A, T52A, T53S, S85N, L91I
notes: mouse IgG, kappa light chain; also called clone #50; purified antibody 50

Key:
hiR2-FL-I477M-T7 = molecular target: T1, hiR2-FL-I477M-T7; assay: FACS, MEF-DKO cells, 3 µg/ml
From the text: (§1) In brief, immortalized MEF-DKO-hiR2-FL-A431S-T7, MEF-DKO-hiR2-FL-V434E-T7, MEF-DKO-hiR2-FL-T436V-T7, MEF-DKO-hiR2-FL-Q437D-T7, MEF-DKO-hiR2-FL-L438S-T7, MEF-DKO-hiR2-FL-S448N-T7, MEF-DKO-hiR2-FL-I452V-T7, MEF-DKO-hiR2-FL-I464E-T7, MEF-DKO-hiR2-FL-D465A-T7, MEF-DKO-hiR2-FL-I477M-T7, MEF-DKO-hiR2-FL-K479Q-T7, MEF-DKO-hiR2-FL-G481P-T7, MEF-DKO-hiR2-FL-I483V-T7, MEF-DKO-hiR2-FL-E484H-T7, MEF-DKO-hiR2-FL-Q485S-T7, MEF-DKO-hiR2-FL-L486F-T7, MEF-DKO-hiR2-FL-V487I-T7, MEF-DKO-hiR2-FL-R489S-T7, MEF-DKO-hiR2-FL-E490A-T7, MEF-DKO-hiR2-FL-D492E-T7, MEF-DKO-hiR2-FL-L493R-T7, MEF-DKO-hiR2-FL-R495K-T7 and MEF-DKO-hiR2-FL-D496H-T7 cells were harvested with 10 mM EDTA in PBS, washed and resuspended in FACS buffer (PBS, 3% FBS, 0.05% sodium azide), and seeded in Nunc U-bottom 96-well plates (Thermo Fisher Scientific, USA) at approximately 1×10⁵ cells per well. To pellet cells and remove supernatants, the plates were centrifuged at 1,500 rpm and 4° C. for 3 minutes. For primary staining, cells were resuspended in 100 μl per well of either FACS buffer alone (controls) or the purified antibodies 3, 5, 16, 22, 34, 42, 43, 44, 48, and 50 of the invention at 3 μg/ml in FACS buffer and incubated on ice for 1 hour. Afterwards, plates were centrifuged at 1,500 rpm and 4° C. for 3 minutes and washed twice with 200 μl per well of FACS buffer. For secondary staining, cells were spun down and resuspended in 100 μl per well of PE-conjugated goat anti-mouse IgG F(ab′)2 detection fragment (Dianova, Germany) diluted 1:100 in FACS buffer. Protected from light, the cell suspensions were incubated on ice for 1 hour. Plates were then centrifuged at 1,500 rpm and 4° C. for 3 minutes and washed three times with 200 μl per well of FACS buffer. Finally, cells were resuspended in 150 μl per well of FACS buffer and analyzed using a BD Accuri™ C6 Plus flow cytometer (Becton Dickinson, Germany).

hiR2-FL-Q437D-T7 = molecular target: T2, hiR2-FL-Q437D-T7; assay: FACS, MEF-DKO cells, 3 µg/ml
From the text: as §1

Row | Binder | loss of binding vs wild type (hiR2-FL-I477M-T7) [%] | loss of binding vs wild type (hiR2-FL-Q437D-T7) [%]
1 | B1 | ≥ 30 | ≥ 30
2 | B2 | ≥ 30 | ≥ 30
